Results from US9555076B2, “Neuregulin based methods and compositions for treating cardiovascular diseases” (Zensun (Shanghai) Science & Technology, Co., Ltd., priority 2002, dated 2017).
Values joined by “and” are separate entries in the source; they are usually repeats but may differ in a detail not shown here. Equal values may be shown once.

Columns and labels:
[1] = tested on: Rhesus; experiment: Serum antibody detection (ELISA) in long-term toxicity study; type: in vivo; conditions: 7.5, 15, 75 μg/kg/d iv, 1, 2, 3-week and end of convalescent period
Method: Sealing: Wash the plate 5 times, prepare 5% evaporated skimmed milk with cleaning solution.
Dilute the scheduled for testing serum; dilute the sample with sample dilution solution, dilute gradient is 1:100.
Add sample: Wash the sealed enzyme labeled plate for 3 times, add scheduled for testing serum, 100 μl/hole, 37° C. for 1 hour.
Add enzyme labeled antibody: Wash the plate 5 times, add 1:1000 diluted HRP labeled rat anti-monkey immunoglobulin, […], 37° C. for 1 hour.
Substrate: Wash the plate 5 times, add newly prepared substrate operating fluid, 100 μl/hole, 37° C. for 10 minutes.
Ending: add 2N H2SO4, 50 μl/hole to end the reaction.
Odd value detection: Positive result was defined as OD value of testing sample was 2.1 time greater than that of the negative control (serum was 1:100 diluted).

[2] = tested on: acute myocardial injury caused by viral (Coxsackie B3) infection in mice; experiment: Echocardiography heart function, mice infected with Coxsackie B3 virus; type: in vivo, BALB/C mice
Method: Drug administration of both the testing drug group and the model group was intravenous injection into the tail vein of mice, once every day (qd), for consecutive 5 days, volume of each of the drug administered was 0.2 ml/animal.
0.2 ml of 100×TCID50 CVB3 provided by Zhong Shan Hospital affiliated to Fudan University was injected intra-abdominally and established myocarditis model. Within the following week, the mouse manifested pilo-erection, depilation, emaciation, dullness and death, about half of the tested animals died at the 8th day.
Intravenous injection of the testing drug into the tail vein was carried out the same day of intra-abdominal viral infection in mice, the injection was performed for consecutive 5 days, animal survival rate was monitored, after completion of the experiment, echocardiograph, myocardial pathologic examination, serum troponin determination were carried out.
Chest depilating was performed at the 7th day of viral injection, then the mouse was fixed on special made fixed mount and echocardiograph was carried out with S12 high-frequency probe, the main index included: • EF: ejection fraction of left ventricle, being major index reflecting ejection function of left ventricle; • FS: shortening fraction of left ventricle, index reflecting contraction function of left ventricle; • LVDd: diastolic maximal inner diameter (cm); • LVDs: systolic minimal inner diameter (cm). 7.3.3.2 Determination of Serum Troponin I (cTnI) in Mice
• Normal mice control group, model group and testing drug group were set up; • Normal mice control group (n=10); • Model group (n=20): Prepared buffer solution was injected; • Testing drug group (n=20): 30 μg/kg of rhNRG-1 β was administered for 3, 5 and 7 consecutive days as three difference therapeutic courses with 20 animals assigned for each group; • Placebo control group (n=20): Intra-abdominal injection of non-CVB3 freeze-thaw cellular supernatant, 0.2 ml/animal. 10.2 Dosage Set Up, Preparation of Testing Drug, Route of Drug Administration, Times of Drug Administration, Concentration and Volume of the Testing Drug • rhNRG-1β was diluted with preparation buffer solution (10 mM PB, 0.2% human serum albumin, 5% mannitol to needed concentration; • Three drug administration groups were set up, intravenous injection for consecutive 3-day, 5-day and 7-day, drug volume for each dose was 0.2 ml/animal; • Drug administration of the model group was intravenous injection into the tail vein of mice, once every day (qd), for consecutive 7 days, drug volume for each dose was 0.2 ml/animal. 7.3 Method of the Experiment 7.3.1 Set Up of Acute Viral Myocariditis Animal Model in Mice

[3] = tested on: heart failure in rat caused by ligation of coronary artery; experiment: Plasma renin-angiotensin-aldosterone radioimmunoassay; type: in vivo, SD rat
Method: Carotid artery phlebotomy was carried out and plasma extracted according to the mandate of the reagent kit, frozen and stored at −20° C. Renin activity (PRA), angiotensin I (AI), angiotensin II (AII) and aldosterone (ALD) content were determined with immunoassay.

[4] = 7.5 μg/kg iv qd × 5, 7th day, (I)
[5] = 7.5 μg/kg iv qd × 5, 7th day, (II)
[6] = 15 μg/kg iv qd × 5, 7th day, (I)
[7] = 15 μg/kg iv qd × 5, 7th day, (I), listed as rhNRG-1β
[8] = 15 μg/kg iv qd × 5, 7th day, (II)
[9] = 30 μg/kg iv qd × 3, 7th day, (I)
[10] = 30 μg/kg iv qd × 3, 7th day, (I), listed as rhNRG-1β
[11] = 30 μg/kg iv qd × 3, 7th day, (II)
[12] = 30 μg/kg iv qd × 5, 7th day, (I)
[13] = 30 μg/kg iv qd × 5, 7th day, (I), listed as hNRG-1β
[14] = 30 μg/kg iv qd × 5, 7th day, (II)
[15] = 30 μg/kg iv qd × 5, 7th day, Example 5 (I)
[16] = 30 μg/kg iv qd × 5, 7th day, Example 5 (I), listed as rhNRG-1β
[17] = 30 μg/kg iv qd × 5, 7th day, Example 5 (II)
[18] = 30 μg/kg iv qd × 7, 7th day, (I)
[19] = 30 μg/kg iv qd × 7, 7th day, (I), listed as rhNRG-1β
[20] = 30 μg/kg iv qd × 7, 7th day, (II)
[21] = dose not given (n = 6), iv qd × 10

B1: rhNRG-1 β: Recombinant human neuregulin fragment of 61 amino acid (SEQ ID NO:4), 3 disulfide bonds, expressed in E. coli (protein, listed as Homo sapiens)
chain: SHLVKCAEKEKTFCVNGGECFMVKDLSNPSRYLCKCPNEFTGDRCQNYVMASFYKAEELYQ
modifications: disulfide (positions not given here)
B1 was tested, and the antibody testing [1] was “negative results”, the EF [2, 4] was 78.1 ± 9.3% and the FS [2, 4] was 41.7 ± 9.6%. The LVDd [2, 4] was 0.191 ± 0.012 cm, the LVDs [2, 4] was 0.114 ± 0.028 cm and the EF [2, 5] was 71.9 ± 6.69%. For the same molecule, the FS [2, 5] was 35.7 ± 5.60%, the LVDd [2, 5] was 0.213 ± 0.009 cm and the LVDs [2, 5] was 0.133 ± 0.015 cm. It also gave an EF [2, 6] of 86.0±2.9%, an FS [2, 6] of 50.7±4.3% and an LVDd [2, 6] of 0.189±0.008 cm. The LVDs [2, 6] was 0.099±0.027 cm, the EF [2, 7] was 81.3 ± 6.28 % and the FS [2, 7] was 44.5 ± 8.27 %. For the same molecule, the LVDd [2, 7] was 0.189 ± 0.008 cm, the LVDs [2, 7] was 0.099 ± 0.027 cm and the EF [2, 8] was 81.6 ± 4.59 %. The FS [2, 8] was 44.9 ± 5.68 %, the LVDd [2, 8] was 0.201 ± 0.011 cm and the LVDs [2, 8] was 0.114 ± 0.018 cm. It also gave an EF [2, 9] of 73.1±6.6%, an FS [2, 9] of 36.7 ± 4.7% and an LVDd [2, 9] of 0.194 ± 0.008 cm. The LVDs [2, 9] was 0.123±0.012 cm, the EF [2, 10] was 73.1 ± 6.6% and the LVDs [2, 10] was 0.123 ± 0.012 cm. The EF [2, 11] was 81.0 ± 5.4%, the FS [2, 11] was 43.9 ± 5.1% and the LVDd [2, 11] was 0.211 ± 0.016 cm. It also gave an LVDs [2, 11] of 0.121 ± 0.016 cm, an EF [2, 12] of 90.2±2.5% and an FS [2, 12] of 55.7±2.1%. It also gave an LVDd [2, 12] of 0.187±0.006 cm, an LVDs [2, 12] of 0.085±0.009 cm and an EF [2, 13] of 90.2 ± 2.5 %. For the same molecule, the FS [2, 13] was 55.7 ± 2.1 %, the LVDd [2, 13] was 0.187 ± 0.006 cm and the LVDs [2, 13] was 0.085 ± 0.009 cm. For the same molecule, the EF [2, 14] was 87.7 ± 3.76 %, the FS [2, 14] was 51.8 ± 5.24 % and the LVDd [2, 14] was 0.196 ± 0.011 cm. For the same molecule, the LVDs [2, 14] was 0.094 ± 0.011 cm, the EF [2, 15] was 86.8±4.4% and the FS [2, 15] was 51.9±5.8%. The LVDd [2, 15] was 0.187 ± 0.006 cm, the LVDs [2, 15] was 0.090±0.011 cm and the EF [2, 16] was 86.8 ± 4.4%. The FS [2, 16] was 51.9 ± 5.8%, the LVDs [2, 16] was 0.090 ± 0.011 cm and the EF [2, 17] was 85.8 ± 4.205%. The FS [2, 17] was 50.0 ± 6.350%, the LVDd [2, 17] was 0.199 ± 0.000 cm and the LVDs [2, 17] was 0.100 ± 0.014 cm. For the same molecule, the EF [2, 18] was 87.0±3.3%, the FS [2, 18] was 51.8±5.1% and the LVDd [2, 18] was 0.192 ± 0.008 cm. It also gave an LVDs [2, 18] of 0.092±0.012 cm, an EF [2, 19] of 87.0 ± 3.3% and an FS [2, 19] of 51.8 ± 5.1%. It also gave an LVDs [2, 19] of 0.092 ± 0.012 cm, an EF [2, 20] of 87.283 ± 1.694% and an FS [2, 20] of 52.367 ± 1.847%. It also gave an LVDd [2, 20] of 0.194 ± 0.017 cm, an LVDs [2, 20] of 0.092 ± 0.008 cm and an AI ([3]; 5 μg/kg iv qd × 10) of 10.036 ng/mL. It also gave an AII ([3]; 5 μg/kg iv qd × 10) of 807.304 pg/mL, an ALD ([3]; 5 μg/kg iv qd × 10) of 1.472 ng/mL and a PRA ([3]; 5 μg/kg iv qd × 10) of 4.032 ng/ml · h. For the same molecule, the AI ([3]; 10 μg/kg iv qd × 10) was 7.65 ± 1.40 ng/mL and 7.654 ng/mL, the AII ([3]; 10 μg/kg iv qd × 10) was 468.58 ± 165.10 pg/mL and 468.583 pg/mL and the ALD ([3]; 10 μg/kg iv qd × 10) was 1.26 ± 0.38 ng/mL and 1.264 ng/mL. For the same molecule, the PRA ([3]; 10 μg/kg iv qd × 10) was 1.075±1.50 ng/ml · h and 1.075 ng/ml · h, the AI ([3]; 20 μg/kg iv qd × 10) was 7.40 ± 12.15 ng/mL and 7.400 ng/mL and the AII ([3]; 20 μg/kg iv qd × 10) was 641.47 ± 283.86 pg/mL and 641.47 pg/mL. For the same molecule, the ALD ([3]; 20 μg/kg iv qd × 10) was 1.02 ± 0.27 ng/mL and 1.018 ng/mL, the PRA ([3]; 20 μg/kg iv qd × 10) was 1.337±1.09 ng/ml · h and 1.337 ng/ml · h and the AI [3, 21] was 10.655 ng/mL. For the same molecule, the AII [3, 21] was 1366.38 pg/mL, the ALD [3, 21] was 1.738 ng/mL and the PRA [3, 21] was 3.506 ng/ml · h.
